The target of this experiment is PMN receptor for mini TyrRS (on human PMNs) (human). Put plainly: competition with ^125I-mini TyrRS on human PMNs (FIG. 10).

For the substance “S. cerevisiae TyrRS (from UniProt P36421 1-394) (enzyme)”, the fold of the dissociation constant against human mini TyrRS was under 200 fold.

The values above are taken from US20040152079A1.
